Data: publication PMC9352680, “A comprehensive thermodynamic model for RNA binding by the Saccharomyces cerevisiae Pumilio protein PUF4”
Residue numbers refer to the chain shown, from its start. Names may count otherwise.

Target: T1, PUF4 RNA-binding domain (Saccharomyces cerevisiae, UniProt P25339 537-888)
T1 sequence: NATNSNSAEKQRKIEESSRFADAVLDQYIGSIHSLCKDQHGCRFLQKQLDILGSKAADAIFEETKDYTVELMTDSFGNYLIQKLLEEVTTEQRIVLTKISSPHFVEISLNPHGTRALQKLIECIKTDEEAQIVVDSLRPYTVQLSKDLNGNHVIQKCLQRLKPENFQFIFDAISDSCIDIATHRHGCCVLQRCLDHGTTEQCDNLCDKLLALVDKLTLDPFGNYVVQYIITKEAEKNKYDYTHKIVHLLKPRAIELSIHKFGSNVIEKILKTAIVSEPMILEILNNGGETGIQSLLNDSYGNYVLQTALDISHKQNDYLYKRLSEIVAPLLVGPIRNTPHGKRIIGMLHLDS
Experiment: Mg; RNA-MaP; 20 mM Na-HEPES pH 7.4, 30 mM KOAc, 0.75 mM MgCl2, 0.1% Tween-20, 5% glycerol, 0.1 mg/mL BSA, 2 mM DTT; 25 C; 0.0125-409.6 nM protein
Conditions: tags: N-His6-TEV cleaved; C-SNAP kept, Cy3B-labelled; label: tethered on chip by stalled RNA polymerase

B1: Id_ii_S2_P4E.4_K4.3_C4.2_[T-1A]_H4.3_A4.1_F4.1_T4.2_[G10C]_[T11A] (ssRNA)
RNA: UUUGAUUAAUAUGAUAUCGUUCUUUCUCAACACUAUUACAUUCUUUCUCGAUAUCAUAUUAAUCUUU
With B1 the Kd was over 2300 nM.

B2: Id_ii_S2_P4E.4_K4.3_C4.2_[T-1G]_H4.3_A4.1_F4.1_T4.2_[G10A] (ssRNA)
RNA: B1 RNA with A29G, C39A, A40U
B2 showed a Kd of over 2300 nM.

B3: Id_ii_S2_P4E.4_K4.3_C4.2_H4.3_A4.1_F4.1_T4.2_[G10C]_[T11A] (ssRNA)
RNA: B1 RNA with A29U
With B3 the Kd was 471 nM.

B4: Id_ii_S2_P4E.4_K4.3_C4.2_[T-1G]_H4.3_A4.1_F4.1_T4.2_[G10A]_[T11A] (ssRNA)
RNA: B1 RNA with A29G, C39A
B4 was tested, and the Kd was over 2300 nM.

With UCUCUUUGUAUAAGUAUCUCUU (ssRNA) [Ic_S1_P5E.1_K5.1_C5.1_H5.1_A5.1_[T6A]_F5.1_[T8G]_T5.1] the Kd was 54 nM.

Binder UCUCUUUGUACUACUAUCUCUU (ssRNA) [Ib_S1_P5E.1_K5.1_C5.1_H5.1_A5.1_[T5C]_F5.1_[T8C]_T5.1] has a Kd of 10.9 nM.

B5: Id_ii_S2_P5E.2_K5.1_C5.2_[C-2G]_[T-1C]_H5.1_A5.1_F5.1_T5.2_[T11A]_[A12C] (ssRNA)
RNA: UUUGAUUAAUAUGAUAUCGUUCUUUCUGCUGUAUUAUUAACUUCUUUCUCGAUAUCAUAUUAAUCUUU
In the case of B5, the Kd is reported as 25.4 nM.

B6: Id_ii_S2_P5E.2_K5.1_C5.2_[C-2T]_[T-1C]_H5.1_A5.1_F5.1_T5.2_[A12G] (ssRNA)
RNA: B5 RNA with G28U, A40U, C41G
Binder B6 has a Kd of 3.04 nM.

B7: Id_ii_S2_P5E.2_K5.1_C5.2_[C-2T]_[T-1C]_H5.1_A5.1_F5.1_T5.2_[T11A]_[A12G] (ssRNA)
RNA: B5 RNA with G28U, C41G
Binder B7 has a Kd of 51 nM.

B8: Id_ii_S2_P5E.2_K5.1_C5.2_[C-2T]_[T-1A]_H5.1_A5.1_F5.1_T5.2_[T11G]_[A12T] (ssRNA)
RNA: B5 RNA with G28U, C29A, A40G, C41U
B8 showed a Kd of 4.78 nM.

B9: Id_ii_S2_P5E.2_K5.1_C5.2_[C-2T]_[T-1C]_H5.1_A5.1_F5.1_T5.2_[T11A]_[A12C] (ssRNA)
RNA: B5 RNA with G28U
For B9, the Kd was 4.08 nM.

B10: Id_ii_S2_P5E.2_K5.1_C5.2_[C-2G]_H5.1_A5.1_F5.1_T5.2_[A12C] (ssRNA)
RNA: B5 RNA with C29U, A40U
In the case of B10, the Kd is reported as 18.8 nM.

B11: Id_ii_S2_P5E.2_K5.1_C5.2_[C-2T]_[T-1G]_H5.1_A5.1_F5.1_T5.2_[T11G]_[A12C] (ssRNA)
RNA: B5 RNA with G28U, C29G, A40G
B11 showed a Kd of 2.9 nM.

B12: Id_ii_S2_P5E.2_K5.1_C5.2_[C-2G]_[T-1C]_H5.1_A5.1_F5.1_T5.2_[A12T] (ssRNA)
RNA: B5 RNA with A40U, C41U
B12 was tested, and the Kd was 3.07 nM.

B13: Id_ii_S2_P5E.2_K5.1_C5.2_[C-2T]_[T-1G]_H5.1_A5.1_F5.1_T5.2_[A12C] (ssRNA)
RNA: B5 RNA with G28U, C29G, A40U
B13 was tested, and the Kd was 1.84 nM.

B14: Id_ii_S2_P5E.2_K5.1_C5.2_[C-2T]_[T-1G]_H5.1_A5.1_F5.1_T5.2_[T11A] (ssRNA)
RNA: B5 RNA with G28U, C29G, C41A
With B14 the Kd was 1.72 nM.

B15: Id_ii_S2_P5E.2_K5.1_C5.2_[C-2G]_[T-1C]_H5.1_A5.1_F5.1_T5.2_[T11A] (ssRNA)
RNA: B5 RNA with C41A
B15 gave a Kd of 7.06 nM.

B16: Id_ii_S2_P5E.2_K5.1_C5.2_[C-2T]_[T-1C]_H5.1_A5.1_F5.1_T5.2_[A12C] (ssRNA)
RNA: B5 RNA with G28U, A40U
Binder B16 has a Kd of 2.98 nM.

B17: Id_ii_S2_P5E.2_K5.1_C5.2_[C-2G]_H5.1_A5.1_F5.1_T5.2_[T11G]_[A12T] (ssRNA)
RNA: B5 RNA with C29U, A40G, C41U
B17 gave a Kd of 3.05 nM.

B18: Id_ii_S2_P5E.2_K5.1_C5.2_[C-2T]_[T-1G]_H5.1_A5.1_F5.1_T5.2_[A12T] (ssRNA)
RNA: B5 RNA with G28U, C29G, A40U, C41U
Work on B18 yielded a Kd of 1.42 nM.

B19: Id_ii_S2_P5E.2_K5.1_C5.2_[C-2G]_H5.1_A5.1_F5.1_T5.2_[T11A]_[A12T] (ssRNA)
RNA: B5 RNA with C29U, C41U
For B19, the Kd was 3.86 nM.

B20: Id_ii_S2_P5E.2_K5.1_C5.2_[C-2G]_H5.1_A5.1_F5.1_T5.2_[A12T] (ssRNA)
RNA: B5 RNA with C29U, A40U, C41U
Binder B20 has a Kd of 2.47 nM.

B21: Id_ii_S2_P5E.2_K5.1_C5.2_[C-2T]_[T-1C]_H5.1_A5.1_F5.1_T5.2_[T11A] (ssRNA)
RNA: B5 RNA with G28U, C41A
B21 gave a Kd of 4.24 nM.

B22: Id_ii_S2_P5E.2_K5.1_C5.2_[C-2G]_[T-1C]_H5.1_A5.1_F5.1_T5.2_[A12C] (ssRNA)
RNA: B5 RNA with A40U
B22 gave a Kd of 11.2 nM.

B23: Id_ii_S2_P5E.2_K5.1_C5.2_[C-2T]_[T-1G]_H5.1_A5.1_F5.1_T5.2_[T11A]_[A12T] (ssRNA)
RNA: B5 RNA with G28U, C29G, C41U
B23 gave a Kd of 1.41 nM.

B24: Id_ii_S2_P5E.2_K5.1_C5.2_[C-2T]_[T-1A]_H5.1_A5.1_F5.1_T5.2_[T11A]_[A12C] (ssRNA)
RNA: B5 RNA with G28U, C29A
Binder B24 has a Kd of 8.24 nM.

B25: Id_ii_S2_P5E.2_K5.1_C5.2_[C-2T]_[T-1C]_H5.1_A5.1_F5.1_T5.2_[A12T] (ssRNA)
RNA: B5 RNA with G28U, A40U, C41U
With B25 the Kd was 1.5 nM.

B26: Id_ii_S2_P5E.2_K5.1_C5.2_[C-2G]_[T-1C]_H5.1_A5.1_F5.1_T5.2_[T11A]_[A12T] (ssRNA)
RNA: B5 RNA with C41U
B26 was tested, and the Kd was 3.35 nM.

For UCUCUUUGUAAUACUAUCUCUU (ssRNA) [Ib_S1_P5E.1_K5.1_C5.1_H5.1_A5.1_[T5A]_F5.1_[T8C]_T5.1], the Kd was 10.3 nM.
